The record followed here is article PMC10480500, “Cryo-EM structure of a bacteriophage M13 mini variant” (Nature Communications, 2023).

B1: minor coat protein pVII (natural protein, bacteriophage M13, UniProt P69535 1-33, looked up)
chain: MEQVADFDTIYQAMIQISVVLCFALGIIAGGQR
notes: Minor coat protein pVII of bacteriophage M13 (encoded by helper phage M13KO7); 33 residues, no signal peptide; residues 1-4 not built in the model; 5 copies in the particle (layer 1); source: E. coli TG1 with pUC19-minigenome, infected with helper phage M13KO7; in the mini phage purified from the supernatant (cobalt resin, sucrose density gradient)

Data set [1] deals with the molecule itself. Description: cryo-EM structure; purified M13 mini phage particle (assembled in E. coli TG1 with helper phage M13KO7), 0.6-0.8 mg/ml; whole particle 3.5 Å with 5-fold symmetry; top, middle and bottom segments refined separately at 3.5, 3.1 and 3.3 Å.
For data set [2], the target named is B1. The data set is described as above. The conditions noted are these: both partners purified.

By stoichiometry N is commonly meant the number of molecules, sites or subunits per partner or assembly. Turning to B1, the “stoichiometry N” value in data set [1] amounted to 5.

B2: minor coat protein pIX (natural protein, bacteriophage M13, UniProt P69538 1-32, looked up)
chain: MSVLVYSFASFVLGWCLRSGITYFTRLMETSS
notes: Minor coat protein pIX of bacteriophage M13 (encoded by helper phage M13KO7); 32 residues, no signal peptide; 5 copies in the particle (layer 2); source: E. coli TG1 with pUC19-minigenome, infected with helper phage M13KO7; in the mini phage purified from the supernatant (cobalt resin, sucrose density gradient)
Take B2: the binding result in data set [2] is “binds”.

B3: minor coat protein pVI (natural protein, bacteriophage M13, UniProt P69532 1-112, looked up)
chain: MPVLLGIPLLLRFLGFLLVTLFGYLLTFLKKGFGKIAIAISLFLALIIGLNSILVGYLSDISAQLPSDFVQGVQLILPSNALPCFYVILSVKAAIFIFDVKQKIVSYLDWDK
notes: 112 amino acids, no post-translational processing reported; residues 1 and 111-112 not built in the model; 5 copies in the particle; source: E. coli TG1 with pUC19-minigenome, infected with helper phage M13KO7; in the mini phage purified from the supernatant (cobalt resin, sucrose density gradient)
Take B3: the “stoichiometry N” value in data set [1] worked out at 5.
